assay: soluble on expression in E. coli; label from the status in PepcDB or PDB records

Row | Sequence | soluble on expression in E. coli
1 | MGSDKIHHHHHHMNRAATLAAYLTEKNWMSQPVSAGQVSFLAAGEYNENWLVQCGGRAAVLRINHGSQLGLRNQSEYEFSVLRHVASSGLTPQPYALDPLPWKHGPGKGAMLMEYIPGTPPDYRLHAADAARLFARVHGCPLPPRGDMIVQPDPVRDIARESTGLLHRQPDHPRSDIRTRLLNYRDTVLRLADDTAQLFAGEPQVITNTEVNSGNFIVLPPQHPRRGNEQAGVALCLVDWEKAVISCCHQDLGHFLVPTTTRWKTDFTFDAQSRTDFLRAYLQARHGSVDADALEALHLRTRVLERTILLRALSWCFMAWYEYSRGDRTLRNEFTYGRITSYLENIECILKYGE | not soluble
2 | MSLNELDCLETASIKIDPFTLELSRSLSTAVGDIEQRRGHVVCVDINGTVGIGEATPLPGWTERYPDCQDALRSVSTDSTSTSTSTSTSTSASEITPDTRSAAHHGIELACVDAMARHHDSSLARFLSTDTPATSIPVNATIGDCDSEQTYKKAESAVEDGYTTIKLKVGARDIESDCNRVIAARSAVGEDITLRVDANGAWNRTAAERFLETARTVDIAYIEQPLPASDLDGHALLRGRGVDIAVDESMNRTSPEQIFAADAADIIVCKPMALGGPKQTLAVARKAEAVDIDTVVTTTIDGVIARMGAVHIAAALPGSGSNARACGLATGSMLADDLTANPVSISDGEISVPTGPGLAGGALRSCCNREGHHHHHH | soluble
3 | MSLGSVFRHIEGGMLFPQGSVTCIGAFDGLHLGHRALVRHALQRATALHLPTVALSFEPLPREYFASTTPPPRLTLTRAKIQGLHRFGADSVGLLRFDSRLASMSPQTFVERVLLGRLGVREVLIGPQFRFGHQRSGDIALLQRLGLEHGFTATEIPPLHLNNERISATKIRALLAAGDFAHAAELLGRPYMIGGRVVRGQQLGSTLGYPTANLRFPHPIALSGIYATWVHGIFEQPWPSVSSFGTRPTVAGVEPLLEVHLFDFHSDLYGRRIDVEFIAKLRDEETFPDLHTMTTQIHRDAQQARHILSEHRLRAEGHHHHHH | not soluble
4 | MEIEKENGSKRLAVLIDADNAQASVLGELLAEISKYGTLNIKRAYGDWTSSNLKSWKEHLHKYAIAPIQQFNYTSGKNATDSALIIDAMDLLHDAPLEGFCLVSSDSDFTRLATRIRESGLVVYGFGEKKTPEAFVAACDKFIYTEILRQEEQRRPESSWNDSWSKSESKALKSIIQPAIKATMKEDDWVPLASIGLYISKNHPAFDPRNYGYDKLGRLIETLDFVELKKIPFKDGSSNTHVMVRLRSLEHHHHHH | not soluble
5 | MRMKQTIPSSYVGLKINEWYTHIRQFHVAEAERVKLEVEREIEDMEEDQDLLLYYSLMEFRHRVMLDYIKPFGEDTSQLEFSELLEDIEGNQYKLTGLLEYYFNFFRGMYEFKQKMFVSAMMYYKRAEKNLALVSDDIEKAEFAFKMAEIFYNLKQTYVSMSYAVQALETYQMYETYTVRRIQCEFVIAGNYDDMQYPERALPHLELALDLAKKEGNPRLISSALYNLGNCYEKMGELQKAAEYFGKSVSICKSEKFDNLPHSIYSLTQVLYKQKNDAEAQKKYREGLEIARQYSDELFVELFQFLHALYGKNIDTESVSHTFQFLEEHMLYPYIEELAHDAAQFYIENGQPEKALSFYEKMVHAQKQIQRGDCLYEI | not soluble
6 | MGSDKIHHHHHHMGLFNIFDVAGSGMSAQSLRLNTTASNIANADSVSSSIDKTYRSRHPIFEAEMAKAQSQQQASQGVAVKGIVESDKPLLKEYSPDHPMADGDGFIYKPNVNVMEEMADMISASRSYQMNVQVAEAAKSMLQQTLGMGK | not soluble
7 | DLTGKSIVGYRISGGLDIPIGYGLYVNPSLAFHSKGMKTNLEGVALGALGLNSSLKVKTHYIEIPVHLGYRLSLLNLVSVAVQAGPYFSYAIKGDGTVVRKDGQETTFDIYKDGLKEMINAKRFDVGLGAAAMVGYSNFYLLIGADFGLINTVKDIKPETKNLEATLKNTSFHVGLGIRL | not soluble
8 | MSNWKPNIPYNDLPPLPPKQDIESKTILKRCIAARASLARLKQAAELIPNQAMLINTLPVMEARASSEIENIVTTTDKLFQSLQMDTERQDPATKEALQYRTALFAGYESLTSRPLCTQTAIMVCNAIKHPYEMAIRKTGGTALKGGNSGNVVYTPPEGEETIRGKLANWERFIHESGDLDPLIIMAAAHYQFEAIHPFTDGNGRTGRILNSLLLIEKGLLDLPILYLSRYIIENRADYYRLLLGVTERQDWESWIIYILDGVADTADWTVSKIDAIRRLFEQTRQHIRTHAQGIYTHELVNLLFEQPYTRIANLEAAGIAKRQTASKYLKELSDIGVLQEIVIGRDKLFIHPRLMELLRGEGNSFTSFQSLVKA | not soluble
9 | MKKTQLGRSFSKSFKQKKARASNASSDPFRFQNNGISYKGKLIGEQDVDKARGDAMCAEAMRTAKSIIKAAGAHKTRITLQINIDGIKVLDEKSGAVLHNFPVSRISFIARDSSDARAFGLVYGEPGGKYKFYGIKTAQAADQAVLAIRDMFQVVFEMKKKQIEQVKQQQIQDGGAEISSKKEGGVAVADLLDLESELQQIERGVQQLSTVPTNCDAFGASPFGDPFVDSFNSTATSNGTANMSGTQVPFGGLQLPQVQQMQMPMVQIPQQSHQNWPTSGAGSFDAWGQQQQQQQMHHAHSTPAFGTNGFSDTNPFASAFNTQARPPPLPTVAPTQYRDPFSVHSSAIPNSNIDWTGTGTTKENMAPSTNIQQQQSSLHHASTFANFGDNKAETWSEKKVTSLEEAFTKLVDMDALVGGQGIKETKKNPFEHILNPPKASLNSMSTTCSAAQMAATQQHTTSSHADPFGDDFFR | not soluble
10 | MALHQRMFSGNKINIVRKNHPLFLGYLNEQLCAYASAQLSQKEGRLLYLGVDEKYRQQGIATALMAQVWNFLHDSCQDKITLVQSDKAQAAGKLYKKLGFKTIRRLLSAQLIVN | not soluble
11 | MANAIRLPPEAYPMSIAAQKNDDDRQARALAALAEKPDGIVEAIAAKAEVAPAEILAILPQGAAVSAPADRFDAIWNEMRGWGEILMIVQTGDIVLEVPGHLPEGTESHGWFNIHGDSPIGGHIKKDNCAAITFVDRGFHGRRSCSVWFMNAAGGAMFKIFVRRDENKELLAGQLAKFEELRDGFRGLEHHHHHH | soluble
12 | MGSDKIHHHHHHMDDDSNQKPLFHMALGVLTSLTPPQHHIELVDEHFHDKINYDGDYDMVGITSRTIEATRAYEIADEFRKRGKTVVLGGLHISFNPEEAAAHADCIVVGEADNLWTTLLDDVANNRLKERYDSKDFPPVKAITPLDYARIAKASKRTKVDGTKSIPIYVTRGCPFNCSFCVTPNFTGKQYRVQDPKLLKHQIEEAKKYFFKANGKNSKPWFMLTDENLGINKKKLWESLDLLKECDITFSVFLSINFLEDPTTVKKLVDAGCNFVLAGLESIKQSTLEAYNKGHVNSAEKYSKIIEDCRKAGLNIQGNFLFNPAIDTFEDIDELVQFVKKNHIFMPIFQIITPYPGTQMYHEYRESGLITIEDWEKYNALHLVIKSDRYEPLLFQYKVLKSYVEVYTWKEILLRTLYNPRKLINLVTSIAFKKHLAAQLKAFERNHKMNPAMLSGVKPVMNG | not soluble
13 | MGHHHHHHSHMKNLINWFEIPVTDMARAIAFYEQVMQISLRRETMDGADLAVFPYAEPGPGGALIKQDDVAPVAQGVVIYLHTADLLASIERVVLAGGKCVLEPMVPGDDIGTIALFIDSEGNRIGLHQPA | soluble
14 | MSLSTLQDLEKTLWATADKMRANMDPAEYKHIVLGLIFLKYISDSFAGRRAELERKFSDAGDDYYLGGDDPTYLASELEERDYYKEVNVFWVPEPARWESLRAAAKQVDIGKRIDDALADIEAENPQLKNILDKRYARAQLPDGKLGELVDMISIIGFSSDANKARDLLGQVYEYFLGQFASAEGKRGGQFYTPASIVKTLVAVLNPHHGKVYDPCCGSGGMFVQSEKFIEAHGGKLGDVSIYGQESNPTTWRLAAMNLAIRGMDFNLGKEPADSFIRNQHSDLRADFVLANPPFNISDWWHGSLDGDSRWVYGTPPQGNANYAWLQHMLFHLKSSGRAGIVLANGSMSSSQNSEGDIRRAMVEADVVEVMVALPGQLFFNTQIPACLWFLAKQKNKRPGEVLFIDARKLGTNISRVQIELLDSDIESIAQTVANWRGVPLEVDGEIAEYADVAGFCRSVPLAEIAEHGHVLTPGRYVGAEAVEEGHHHHHH | not soluble
15 | GPGSMRNLLGESAVSSLVIEEPTKVAMTTSPTAVLNSSMSTDTDSTAVSPARVKGVSPQTKANGNSNGDGSTAIRGQSNDKQLEAPTEVQYRAVEVMVVDRGTQTTTTVGCQTDPEPSQSPVGGAMPFHRGFCPRCTCCCRGVVRDYPWRNAREEEDRSSRFQEELETIQKSIDMMIARYNLPPPPMPRY | not soluble
16 | MTATITNKKSCSGSVEAGKTRLTTEWKPESQVPQYVKNELSKPHPNYILAFLNVVQQLKIQRRTGYLDLGIKECESISDHMYRLSIITMLIKDSRVNRDKCVRIALVHDIAESLVGDITPVDPIGKEEKHRREWETIKYLCNALIKPYNEIAAKEIMDDWLAYENVTSLEARYVKDIDKYEMLVQCFEYEREYKGTKNFDDFFGAVASIKTDEVKGWTSDLVVQRQKYFADLTQSITK | soluble
17 | MSLDVFVLDTSVFTNPEIYRTFEEDQRGAMETFIHLALNSRAEFYMPTSVYTEMRKIMDVGELWAEFEMVVKIRSPRRFQLTVPADFLYEFIEELRYRINKGLRIAEEHTREASGCEDVGKLIARLREKYREALRQGILDSKEDVDVLLLAYELDGVLVSADEGLRTWADKIGIKLIDPKNFKNILESLVRHRFEGHHHHHH | soluble
18 | MGAKDKATGKSWSDVQQRLQQFHSQEFLNSLRGTTQFAGTDYRSKDLTPKKSRLLADTISAVYLDGYES | not soluble
19 | MGSDKIHHHHHHMSEKLWEKGYKVNEEVEKFTVGDDYITDMKIIEYDIKASIVHSRMLHKIGLLSAEEQKKIEEALSELLNLVKEGKFQIKPEEEDCHTAIENFLVKKLGEIGKKIHTARSRNDQVLTALRLMYKEELKEIENLIRELQKSLERFIEKFGDVKFPGYTHTRKAMPTDFATWAGALKDALEDDLKLLKTAYEIVDQSPLGTGAGYGVPIDIDREFTAKELGFSKVQWNPIYTQNSRGKFEYLILHTLSQISYDLNRFASDIIFFSLPEIGYLKLPKELCTGSSIMPHKINPDPLELVRAHHHTIVSKMLMAVTLPSNLIFGYHRDFQLLKKPVIEAFEVVKNIVRIMKIIFDHLEVDKERSESSITEEVLATHRVYELVKQGVPFRDAYRMVAEKYGREKD | not soluble
20 | DALEVAEKVTAVIFDKTGTLTKLKESAKPAVQELKRMGIKVGMITGDNWRSAEAISRELNLDLVIAEVLPHQKSEEVKKLQAKEVVAFVGDGINDAPALAQADLGIAVGSGDIVLIRDDLRDVVAAIQ | soluble
21 | MKQVLVIKNERSSAKKIVSGLTQEGYFILKLHNENEGLNIIYEQDWDIIILDWDSLSISGPEICRQIRLVKTTPIIIVTDNISSKDCVAGLQAGADDYIRKPFAKEELVARVQAILRRSDCNQQKEINFFQFKDLFVDASSNIVKKGGKNLSLTKREYDLLVFLIKNKNTILSREMLLNQVWGYNIVVNPNVVDLYIGYVRKKLKCEKKERYIQTIHGRGYSMIE | not soluble
22 | MGSDKIHHHHHHMNNQVKRRKTKAVNVGKVQVGGGAPVAVQSMTCTDTRNVRETIEQIEALEKAGCEIVRVAVPDAEAASVLGKIKKSISIPLIADIHFNHHYALMAIEQDVDGIRINPGNVGKKNIAEIVRAAKDHNTVIRIGVNAGSLEKELQEKHGGPTAHALTESALNNLAFVEDMGFDRIKLSLKSSHVPTMIDAYRLVADKTDYPLHLGVTEAGTLVTSAVKSSIGMGLLLHEGIGDTIRVSVTGSPVLEIGIAYDILRALDIRRVGPDIISCPTCGRCEIDLFGLVEQVEHSLSGMKDYMKIALMGCVVNGPGEAAEADVGIAGGRGMGLLFKKGQVIRKIREEEFVKALLQEIQEMTGE | not soluble

Source: the DeepSol protein solubility set
